# From US20220056125A1 (CEPHALON, published 2022)
# T1: human PAR-2 (human, UniProt P55085 26-397)
# T1 sequence: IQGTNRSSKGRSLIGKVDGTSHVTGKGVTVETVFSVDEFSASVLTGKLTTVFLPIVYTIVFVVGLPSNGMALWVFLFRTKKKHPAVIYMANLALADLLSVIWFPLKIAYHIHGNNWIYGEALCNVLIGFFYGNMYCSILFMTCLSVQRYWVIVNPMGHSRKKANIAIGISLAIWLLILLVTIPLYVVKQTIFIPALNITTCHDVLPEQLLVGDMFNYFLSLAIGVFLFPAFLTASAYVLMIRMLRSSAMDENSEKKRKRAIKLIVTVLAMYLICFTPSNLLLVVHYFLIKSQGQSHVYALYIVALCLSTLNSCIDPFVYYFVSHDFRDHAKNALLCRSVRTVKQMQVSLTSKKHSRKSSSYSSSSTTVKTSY
# Target: T1, human PAR-2
# Assay: cell-based or functional assay
Binder,"PAR-2 β-arrestin cell based assay IC50, 2 µM SLIGKV [nM]","PAR-2 β-arrestin cell based assay IC50, 1 µM SLIGKV [nM]"
"P24E972 (antibody, human IgG4 S228P, kappa, V domains shown) VH: QVQLVQSGAEVKKPGSSVKVSCKASGFSLSSYAISWVRQAPGQGLEWMGVIWGNGNVYYAQKFQGRVTITADESTSTAYMELSSLRSEDTAVYYCARWKGYKDYPFDYWGQGTLVTVSS VL: EIVLTQSPATLSLSPGERATLSCRASQNVYKWLDWYQQKPGQAPRLLIYNAYSRATGIPARFSGSGSGRDFTLTISSLEPEDFAVYYCQQHHHGWTFGGGTKVEIKR",1.52,
"P24E22 (antibody, human IgG4 S228P, kappa, V domains shown) VH: QVQLVQSGAEVKKPGSSVKVSCKASGFSLNSYGVIWVRQAPGQGLEWMGVIWGNGNTYYAQKFQGRVTITADESTSTAYMELSSLRSEDTAVYYCARWRGYKDYPFDYWGQGTLVTVSS VL: EIVLTQSPATLSLSPGERATLSCKASQNIYKYLDWYQQKPGQAPRLLIYNTNSLHTGIPARFSGSGSGRDFTLTISSLEPEDFAVYYCLQHNSGWTFGGGTKVEIKR",,2.5
"P24E219 (antibody, human IgG4 S228P, kappa, V domains shown) VH: QVQLVQSGAEVKKPGSSVKVSCKASGFSLNSYGGIWVRQAPGQGLEWMGVIWGNGNTYYNQKFQGRVTITADESTSTAYMELSSLRSEDTAVYYCARWRGYKDYPFDYWGQGTLVTVSS VL: EIVLTQSPATLSLSPGERATLSCKASQNIYKYLDWYQQKPGQAPRLLIYNTNSLHTGIPARFSGSGSGRDFTLTISSLEPEDFAVYYCLQHNSGWTFGGGTKVEIKR",,1.33
"P24E975 (antibody, human IgG4 S228P, kappa, V domains shown) VH: QVQLVQSGAEVKKPGSSVKVSCKASGFSLSSYAISWVRQAPGQGLEWMGVIWGNQNVYYAQKFQGRVTITADESTSTAYMELSSLRSEDTAVYYCARWKGYKDYPFDYWGQGTLVTVSS VL: EIVLTQSPATLSLSPGERATLSCRASQNVYKWLDWYQQKPGQAPRLLIYNAYSRATGIPARFSGSGSGRDFTLTISSLEPEDFAVYYCQQHHHGWTFGGGTKVEIKR",0.75,
"P24E216 (antibody, human IgG4 S228P, kappa, V domains shown) VH: QVQLVQSGAEVKKPGSSVKVSCKASGFSLNYYGVIWVRQAPGQGLEWMGVIWGNGNTYYNQKFQGRVTITADESTSTAYMELSSLRSEDTAVYYCARWRGYKDYPFDYWGQGTLVTVSS VL: EIVLTQSPATLSLSPGERATLSCKASQNIYKYLDWYQQKPGQAPRLLIYNTNSLHTGIPARFSGSGSGRDFTLTISSLEPEDFAVYYCLQHNSGWTFGGGTKVEIKR",,1.95
"P24E60 (antibody, human IgG4 S228P, kappa, V domains shown) VH: QVQLVQSGAEVKKPGSSVKVSCKASGFSLNSYGVIWVRQAPGQGLEWMGVIWGNGNTYYNQKFQGRVTITADESTSTAYMELSSLRSEDTAVYYCARWRGYKDYPFDYWGQGTLVTVSS VL: EIVLTQSPATLSLSPGERATLSCKASQNIYKWLDWYQQKPGQAPRLLIYNTNSLHTGIPARFSGSGSGRDFTLTISSLEPEDFAVYYCLQHNSGWTFGGGTKVEIKR",,2.03
"P24E232 (antibody, human IgG4 S228P, kappa, V domains shown) VH: QVQLVQSGAEVKKPGSSVKVSCKASGFSLNSYGVIWVRQAPGQGLEWMGVIWGNGNTYYGQKFQGRVTITADESTSTAYMELSSLRSEDTAVYYCARWRGYKDYPFDYWGQGTLVTVSS VL: EIVLTQSPATLSLSPGERATLSCKASQNIYKYLDWYQQKPGQAPRLLIYNTNSLHTGIPARFSGSGSGRDFTLTISSLEPEDFAVYYCLQHNSGWTFGGGTKVEIKR",,1.99
"P24E41 (antibody, human IgG4 S228P, kappa, V domains shown) VH: QVQLVQSGAEVKKPGSSVKVSCKASGFSLNSYGVIWVRQAPGQGLEWMGVIWGNGNTYYNQKFQGRVTITADESTSTAYMELSSLRSEDTAVYYCARWRGYKDYPFDYWGQGTLVTVSS VL: EIVLTQSPATLSLSPGERATLSCKASQNIYKYLDWYQQKPGQAPRLLIYDASNRATGIPARFSGSGSGRDFTLTISSLEPEDFAVYYCLQHNSGWTFGGGTKVEIKR",,26.9

# The next lines start with the values.
"PAR-2 β-arrestin cell based assay IC50, 2 µM SLIGKV [nM]","PAR-2 β-arrestin cell based assay IC50, 1 µM SLIGKV [nM]",Binder
,11.3,"P24E9 (antibody, human IgG4 S228P, kappa, V domains shown) VH: QVQLVQSGAEVKKPGSSVKVSCKASGFSLSSYGVIWVRQAPGQGLEWMGVIWGNGNTYYNQKFQGRVTITADESTSTAYMELSSLRSEDTAVYYCARWRGYKDYPFDYWGQGTLVTVSS VL: EIVLTQSPATLSLSPGERATLSCKASQNIYKYLDWYQQKPGQAPRLLIYNTNSLHTGIPARFSGSGSGRDFTLTISSLEPEDFAVYYCLQHNSGWTFGGGTKVEIKR"
,2.56,"P24E61 (antibody, human IgG4 S228P, kappa, V domains shown) VH: QVQLVQSGAEVKKPGSSVKVSCKASGFSLNSYGVIWVRQAPGQGLEWMGVIWGNGNTYYNQKFQGRVTITADESTSTAYMELSSLRSEDTAVYYCARWRGYKDYPFDYWGQGTLVTVSS VL: EIVLTQSPATLSLSPGERATLSCKASQNIYKFLDWYQQKPGQAPRLLIYNTNSLHTGIPARFSGSGSGRDFTLTISSLEPEDFAVYYCLQHNSGWTFGGGTKVEIKR"
,3.25,"P24E186 (antibody, human IgG4 S228P, kappa, V domains shown) VH: QVQLVQSGAEVKKPGSSVKVSCKASGFSLNSYGVIWVRQAPGQGLEWMGVIWGNGNTYYNQKFQGRVTITADESTSTAYMELSSLRSEDTAVYYCARWRGWKDYPFDYWGQGTLVTVSS VL: EIVLTQSPATLSLSPGERATLSCKASQNIYKYLDWYQQKPGQAPRLLIYNTNSLHTGIPARFSGSGSGRDFTLTISSLEPEDFAVYYCLQHNSGWTFGGGTKVEIKR"
1.73,,"P24E977 (antibody, human IgG4 S228P, kappa, V domains shown) VH: QVQLVQSGAEVKKPGSSVKVSCKASGFSLSSYAISWVRQAPGQGLEWMGVIWGNQNVYYAQKFQGRVTITADESTSTAYMELSSLRSEDTAVYYCARWKGYKDYPFDYWGQGTLVTVSS VL: EIVLTQSPATLSLSPGERATLSCRASQNVYKWLDWYQQKPGQAPRLLIYDAYSRATGIPARFSGSGSGRDFTLTISSLEPEDFAVYYCQQHHSGWTFGGGTKVEIKR"
0.94,,"P24E978 (antibody, human IgG4 S228P, kappa, V domains shown) VH: QVQLVQSGAEVKKPGSSVKVSCKASGFSLSSYAISWVRQAPGQGLEWMGVIWGNQNVYYAQKFQGRVTITADESTSTAYMELSSLRSEDTAVYYCARWKGYKDYPFDYWGQGTLVTVSS VL: EIVLTQSPATLSLSPGERATLSCRASQNVYKWLDWYQQKPGQAPRLLIYDAYSRATGIPARFSGSGSGRDFTLTISSLEPEDFAVYYCQQHHHGWTFGGGTKVEIKR"
,2.47,"P24E40 (antibody, human IgG4 S228P, kappa, V domains shown) VH: QVQLVQSGAEVKKPGSSVKVSCKASGFSLNSYGVIWVRQAPGQGLEWMGVIWGNGNTYYNQKFQGRVTITADESTSTAYMELSSLRSEDTAVYYCARWRGYKDYPFDYWGQGTLVTVSS VL: EIVLTQSPATLSLSPGERATLSCKASQNIYKYLDWYQQKPGQAPRLLIYNTNSLATGIPARFSGSGSGRDFTLTISSLEPEDFAVYYCLQHNSGWTFGGGTKVEIKR"
2.35,,"P24E973 (antibody, human IgG4 S228P, kappa, V domains shown) VH: QVQLVQSGAEVKKPGSSVKVSCKASGFSLSSYAISWVRQAPGQGLEWMGVIWGNGNVYYAQKFQGRVTITADESTSTAYMELSSLRSEDTAVYYCARWKGYKDYPFDYWGQGTLVTVSS VL: EIVLTQSPATLSLSPGERATLSCRASQNVYKWLDWYQQKPGQAPRLLIYNAYSRATGIPARFSGSGSGRDFTLTISSLEPEDFAVYYCQQHGHGWTFGGGTKVEIKR"
